Source: patent publication US20100298541A1 (published 2010)

Molecular target: T1, TRAIL-R2/Fc fusion protein (R & D Systems) (UniProt O14763 54-182, limits assumed)
T1 construct: not shown: Fc part of the bought fusion; captured with anti-human IgG Fc antibody
Assay: biosensor, TRAIL-R2-Fc fusion protein immobilized; mono-, bi- and tetravalent D1 constructs injected
Method: FIG. 19. Binding affinity of Tn3 monomers and multimers. Depicted in this panel are sensorgrams from a Biosensor binding experiment using mono-, bi- and tetravalent 1C12 and D1 Tn3 constructs. TRAIL-R2-Fc fusion protein was immobilized on a sensor chip while sample proteins were injected over the chip. “tetra” refers to the tetravalent Cκ/IGHG1 fusion constructs.
A qualitative comparison of binding by monomeric 1C12, 1C12-Fc and 1C12-Cκ/1C12-IGHG1 proteins was performed by injecting samples of each of these proteins over a TRAIL-R2 chip on an Attana biosensor instrument.

T1 sequence (O14763 54-182 limits assumed): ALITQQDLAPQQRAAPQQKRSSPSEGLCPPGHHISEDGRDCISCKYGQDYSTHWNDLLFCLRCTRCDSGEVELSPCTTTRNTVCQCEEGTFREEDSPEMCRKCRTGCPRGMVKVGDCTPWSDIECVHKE

B1: D1 (designed binder)
chain: IEVKDVTDTTALITWSPGERIWMFTGCELTYGIKDVPGDRTTIDLTEDENQYSIGNLKPDTEYEVSLICPNYERISNPAKETFTT
B1: no binding.
